Measured values published in US20060257887A1.

Target: GFP 1-10 OPT (Aequorea victoria) [GFP: P42212]
Test: cell-based or functional assay

- complementation rate (fold (decrease)): 5
Substance: HPS-GFP 11 M2 (3-hexulose 6-phosphate synthase fused to GFP S11 M2; L221H, F223S, T225N)
